According to the supplement of paper PMC9233669:
This sample holds only a part of the variants without activity.

Experiments:
biotinyl-Phe-oxazolone = experiment: self-aminoacylation, catalytic enhancement (BFO) (fold over background); higher = more active; k-Seq, kA / k0A0; sequences stand for … in GGGAAUGGAUCCACAUCUACGAAUUC…UUCACUGCAGACUUGACGAAGCUG
Summary of the method: (§1)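 Working in 50 μL HEPES/NaCl/KCl/MgCl2/CaCl2 buffer with 5% acetonitrile at pH 6.9–7.0, mutagenized RNA pools (0.43 μM; 21-nt variable region) were reacted with 2–1250 μM of each biotinyl-aminoacyl-oxazolone for 90 minutes at room temperature. Streptavidin capture followed, with quantification by triplicate qPCR and Illumina sequencing. Catalytic enhancement is reported as median kA over the uncatalyzed rate, the low-activity peak of a bimodal Gaussian fit to the data.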

biotinyl-Val-oxazolone = experiment: self-aminoacylation, catalytic enhancement (BVO) (fold over background); higher = more active; k-Seq, kA / k0A0; sequences stand for … in GGGAAUGGAUCCACAUCUACGAAUUC…UUCACUGCAGACUUGACGAAGCUG
Summary of the method: as §1

biotinyl-Trp-oxazolone = experiment: self-aminoacylation, catalytic enhancement (BWO) (fold over background); higher = more active; k-Seq, kA / k0A0; sequences stand for … in GGGAAUGGAUCCACAUCUACGAAUUC…UUCACUGCAGACUUGACGAAGCUG
Summary of the method: as §1

biotinyl-Leu-oxazolone = experiment: self-aminoacylation, catalytic enhancement (BLO) (fold over background); higher = more active; k-Seq, kA / k0A0; sequences stand for … in GGGAAUGGAUCCACAUCUACGAAUUC…UUCACUGCAGACUUGACGAAGCUG
Summary of the method: as §1

biotinyl-Met-oxazolone = experiment: self-aminoacylation, catalytic enhancement (BMO) (fold over background); higher = more active; k-Seq, kA / k0A0; sequences stand for … in GGGAAUGGAUCCACAUCUACGAAUUC…UUCACUGCAGACUUGACGAAGCUG
Summary of the method: as §1

biotinyl-Ile-oxazolone = experiment: self-aminoacylation, catalytic enhancement (BIO) (fold over background); higher = more active; k-Seq, kA / k0A0; sequences stand for … in GGGAAUGGAUCCACAUCUACGAAUUC…UUCACUGCAGACUUGACGAAGCUG
Summary of the method: as §1

Sequence	self-aminoacylation (biotinyl-Phe-oxazolone)	self-aminoacylation (biotinyl-Val-oxazolone)	self-aminoacylation (biotinyl-Trp-oxazolone)	self-aminoacylation (biotinyl-Leu-oxazolone)	self-aminoacylation (biotinyl-Met-oxazolone)	self-aminoacylation (biotinyl-Ile-oxazolone)
CCACACUUCAAGCAAUCCGUG [Fam1B.1 aminoacylation ribozyme variant]	26.9	2.47	2.78	5.32	3.21	2.79
CCACACUUCAAGCAAUCGCGC [Fam1B.1 aminoacylation ribozyme variant]	6.7	3.35	2.44	3.04	2.16	2.08
CCACACUUCAAGCAAUCGGCA [Fam1B.1 aminoacylation ribozyme variant]	1.07	1.37	1.28	1.59	0.777	1.18
CCACACUUCAAGCAAUCGGGA [Fam1B.1 aminoacylation ribozyme variant]	1.46	1.8	1.87	1.04	1.51	1.55
CCACACUUCAAGCAAUCGGGG [Fam1B.1 aminoacylation ribozyme variant]	1.38	2.19	2.3	2.28	1.21	1.71
CCACACUUCAAGCAAUCGGGU [Fam1B.1 aminoacylation ribozyme variant]	0.915	1.8	1.06	1.87	1.41	1.51
CCACACUUCAAGCAAUCGGUG [Fam1B.1 aminoacylation ribozyme variant]	17.1	3.68	5.45	7.2	5.19	3.68
CCACACUUCAAGCAAUCGUUC [Fam1B.1 aminoacylation ribozyme variant]	1.31	0.845	0.675	0.579	0.57	0.714
CCACACUUCAAGCAAUCGUUG [Fam1B.1 aminoacylation ribozyme variant]	1.26	0.908	1.15	0.776	0.877	0.944
CCACACUUCAAGCAAUCUGUC [Fam1B.1 aminoacylation ribozyme variant]	0.824	0.518	0.369	0.327	0.34	0.368
CCACACUUCAAGCAAUUGGAC [Fam1B.1 aminoacylation ribozyme variant]	0.614	0.697	0.337	0.583	0.664	0.72
CCACACUUCAAGCAAUUGGUC [Fam1B.1 aminoacylation ribozyme variant]	1.43	0.707	0.858	0.594	0.625	0.702
CCACACUUCAAGCACUUGGUC [Fam1B.1 aminoacylation ribozyme variant]	1.03	0.65	0.616	0.818	0.775	0.816
CCACACUUCAAGCAGUAGGUC [Fam1B.1 aminoacylation ribozyme variant]	0.807	0.815	0.401	0.51	0.425	0.633
CCACACUUCAAGCAGUCGGUC [Fam1B.1 aminoacylation ribozyme variant]	1.1	0.878	0.712	0.783	0.724	0.849
CCACACUUCAAGCAGUCGGUG [Fam1B.1 aminoacylation ribozyme variant]	18.4	2.29	2.1	3.56	2.34	2.18
CCACACUUCAAGCAGUCUGUC [Fam1B.1 aminoacylation ribozyme variant]	0.562	0.478	0.305	0.353	0.383	0.339
CCACACUUCAAGCAUACGGUC [Fam1B.1 aminoacylation ribozyme variant]	0.63	0.836	0.453	0.501	0.538	0.564
CCACACUUCAAGCCAUAGGUC [Fam1B.1 aminoacylation ribozyme variant]	0.805	0.688	0.633	0.632	0.622	0.812
CCACACUUCAAGCCAUCGGUA [Fam1B.1 aminoacylation ribozyme variant]	0.774	1.4	1.05	1.88	1.7	1.53
CCACACUUCAAGCCAUCUGUC [Fam1B.1 aminoacylation ribozyme variant]	0.711	0.72	0.498	0.401	0.542	0.493
CCACACUUCAAGCCGUCGGUC [Fam1B.1 aminoacylation ribozyme variant]	0.678	1.49	1	1.57	1.47	1.41
CCACACUUCAAGCUAUAGGUC [Fam1B.1 aminoacylation ribozyme variant]	0.975	0.806	0.508	0.489	0.513	0.613
CCACACUUCAAGCUAUCGGUA [Fam1B.1 aminoacylation ribozyme variant]	0.934	1.18	1.29	1.28	0.992	1.16
CCACACUUCAAGUAAUCGGGC [Fam1B.1 aminoacylation ribozyme variant]	1.28	1.69	1.73	1.54	1.64	1.68
CCACACUUCAAGUAAUCGUUC [Fam1B.1 aminoacylation ribozyme variant]	0.886	0.801	0.552	0.705	0.613	0.628

Sequence	self-aminoacylation (biotinyl-Phe-oxazolone)	self-aminoacylation (biotinyl-Val-oxazolone)	self-aminoacylation (biotinyl-Trp-oxazolone)	self-aminoacylation (biotinyl-Leu-oxazolone)	self-aminoacylation (biotinyl-Met-oxazolone)	self-aminoacylation (biotinyl-Ile-oxazolone)
CCACACUUCAAGUAAUGGGUC [Fam1B.1 aminoacylation ribozyme variant]	0.642	0.66	0.546	0.803	1.04	0.868
CCACACUUCAAGUUAUCGGUC [Fam1B.1 aminoacylation ribozyme variant]	0.799	1.06	1.08	1.04	1.01	1.09
CCACACUUCAAUCAAACGGUC [Fam1B.1 aminoacylation ribozyme variant]	0.747	0.757	0.456	0.575	0.543	0.618
CCACACUUCAAUCAAUCGGUC [Fam1B.1 aminoacylation ribozyme variant]	42.7	1.17	21.8	1.51	1.05	1.1
CCACACUUCAAUCAAUCGGUG [Fam1B.1 aminoacylation ribozyme variant]	2.64	1.98	2.57	3.6	2.66	2.23
CCACACUUCAAUCAAUCGUUC [Fam1B.1 aminoacylation ribozyme variant]	1.04	0.607	0.469	0.506	0.423	0.622
CCACACUUCAAUCAAUCUGUC [Fam1B.1 aminoacylation ribozyme variant]	0.748	0.58	0.342	0.343	0.429	0.425
CCACACUUCAAUCAAUGGGUC [Fam1B.1 aminoacylation ribozyme variant]	0.724	0.724	0.467	0.564	0.651	0.801
CCACACUUCAAUCCAUCGGUC [Fam1B.1 aminoacylation ribozyme variant]	0.794	0.91	0.553	0.676	0.824	0.801
CCACACUUCAAUUAAUCGGUC [Fam1B.1 aminoacylation ribozyme variant]	26.1	1.06	15.6	1.09	0.937	1.01
CCACACUUCACGCAAUUGGUC [Fam1B.1 aminoacylation ribozyme variant]	0.859	1.03	0.792	0.957	0.667	0.951
CCACACUUCACGCUAUCGGUC [Fam1B.1 aminoacylation ribozyme variant]	1.09	1.17	0.951	0.971	1.03	1.13
CCACACUUCAGACAAUCGGUC [Fam1B.1 aminoacylation ribozyme variant]	1.33	1.26	1.29	1.53	0.902	1.17
CCACACUUCAGGCAAUCGGGC [Fam1B.1 aminoacylation ribozyme variant]	11	3.35	2.21	2.45	1.37	2.46
CCACACUUCAGGCAAUCGGUA [Fam1B.1 aminoacylation ribozyme variant]	1.97	1.33	1.04	1.23	1.43	1.24
CCACACUUCAGGCAAUCGGUC [Fam1B.1 aminoacylation ribozyme variant]	1.47	1.27	1.28	1.11	1.14	1.14
CCACACUUCAGGCAGUCGGUC [Fam1B.1 aminoacylation ribozyme variant]	0.789	1.48	1.32	1.62	1.04	1.48
CCACACUUCAGUCAAUCGGUC [Fam1B.1 aminoacylation ribozyme variant]	1.06	0.965	1.31	1.03	1.02	1.11
CCACACUUCAUGCAAACGGUC [Fam1B.1 aminoacylation ribozyme variant]	0.769	0.774	0.512	0.507	0.556	0.809
CCACACUUCAUGCAAUAGGUC [Fam1B.1 aminoacylation ribozyme variant]	1.03	0.834	0.467	0.637	0.582	0.711
CCACACUUCAUGCAAUCGAUC [Fam1B.1 aminoacylation ribozyme variant]	0.923	0.721	0.336	0.489	0.528	0.552
CCACACUUCAUGCGAUCGGUC [Fam1B.1 aminoacylation ribozyme variant]	0.762	1.17	0.917	1.12	0.828	1.1
CCACACUUCAUUCAAUCGGUC [Fam1B.1 aminoacylation ribozyme variant]	0.605	0.744	0.495	0.701	0.604	0.806
CCACACUUCCAGCAAUCGAUC [Fam1B.1 aminoacylation ribozyme variant]	0.92	0.959	0.611	0.579	0.673	0.83
CCACACUUCCAGCAAUCGGGC [Fam1B.1 aminoacylation ribozyme variant]	1.84	2.32	2.82	1.74	1.72	2
